Experimental data as given in patent EP2193147B1.
One block for each binder: values may come before it.

Tests used:
human ferritin (human) = human ferritin (human) (UniProt P02794); experiment: method not stated
[1] = target: human liver ferritin, Calbiochem (human) (UniProt P02794); experiment: solid-phase RIA, 90Y-labelled antibody, ferritin immobilised at 5 ug/ml on tubes
[2] = target: human liver ferritin, Calbiochem (human) (UniProt P02794); experiment: solid-phase RIA, 111In-labelled antibody, ferritin immobilised at 5 ug/ml on tubes
[3] = target: ferritin of fixed and permeabilized CAPAN-1 cells (human) (UniProt P02794); experiment: 111In-labelled antibody on fixed and permeabilized CAPAN-1 cells, Lindmo linear extrapolation
Sequence of ferritin of fixed and permeabilized CAPAN-1 cells (human) (P02794 whole entry, chain 1 of 2): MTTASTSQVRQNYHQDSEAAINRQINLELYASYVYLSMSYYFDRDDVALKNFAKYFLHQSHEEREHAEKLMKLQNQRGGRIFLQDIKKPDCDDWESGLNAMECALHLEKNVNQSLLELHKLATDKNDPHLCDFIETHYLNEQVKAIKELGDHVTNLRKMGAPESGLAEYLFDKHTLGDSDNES
Sequence of ferritin of fixed and permeabilized CAPAN-1 cells (human) (P02792 2-175, chain 2 of 2, further chain): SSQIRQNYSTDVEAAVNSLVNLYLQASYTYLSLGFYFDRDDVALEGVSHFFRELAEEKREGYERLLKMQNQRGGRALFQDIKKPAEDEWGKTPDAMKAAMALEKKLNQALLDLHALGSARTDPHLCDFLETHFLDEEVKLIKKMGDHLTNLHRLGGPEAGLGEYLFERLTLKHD

Sequence of human liver ferritin, Calbiochem (human) (P02794 2-183 limits assumed, chain 1 of 2): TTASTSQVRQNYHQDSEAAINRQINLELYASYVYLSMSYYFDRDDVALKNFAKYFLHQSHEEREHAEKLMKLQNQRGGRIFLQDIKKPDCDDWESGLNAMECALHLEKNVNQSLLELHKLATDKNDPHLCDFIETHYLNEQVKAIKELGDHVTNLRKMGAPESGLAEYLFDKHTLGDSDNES
Sequence of human liver ferritin, Calbiochem (human) (P02792 2-175 limits assumed, chain 2 of 2, further chain): as the sequence (P02792 2-175, chain 2 of 2, further chain) above
Sequence of human ferritin (human) (P02794 2-183 limits assumed, chain 1 of 2): as the sequence (P02794 2-183 limits assumed, chain 1 of 2) above
Sequence of human ferritin (human) (P02792 2-175 limits assumed, chain 2 of 2, further chain): as the sequence (P02792 2-175, chain 2 of 2, further chain) above

Kd (human ferritin (human)): 5.1 nM
B1: AMB8LK monoclonal IgG1 anti-ferritin antibody (murine, unconjugated) (antibody, from another filing, V domains shown)
VH: QVQLKESGPGLVAPSQSLSITCTVSGFSLSRYSVHWVRQPPGKGLEWLGTIWGGGSTDYNSVLKSRLSISKDNSKSQVLLKVNSLQTDDTAIYYCASGPYYYTMDYWGQGTSVTVSS
VL: QIVLTQSPAILSASLGEEITLTCSASSSVTFMHWYQQKSGTSPKLLIYTTSNLASGVPSRFSGSGSGTFYSLTISSVEAEDAADYYCHQWSSYPTFGSGTKLEIKR

percentage of bound antibody [1]: 100% | percentage of bound antibody [2]: 87% | immunoreactive fraction [3]: 52%
B2: Bz-DTPA-AMB8LK (antibody, from another filing, V domains shown)
VH: B1 VH
VL: B1 VL

percentage of bound antibody [1]: 73.2% | percentage of bound antibody [2]: 76.8% | immunoreactive fraction [3]: 24%
B3: Bz-DOTA-AMB8LK (antibody, from another filing, V domains shown)
VH: B1 VH
VL: B1 VL

percentage of bound antibody [1]: 98.9% | percentage of bound antibody [2]: 74.8% | immunoreactive fraction [3]: 43%
B4: Bz-CHX-A"-DTPA-AMB8LK (antibody, from another filing, V domains shown)
VH: B1 VH
VL: B1 VL
